Broadly, the stoichiometry N is a count of units in the complex or per binding partner.

The results in this text go back to doi:10.1101/2025.09.09.675230.

This test deals with Measles virus fusion protein (F) ectodomain, prefusion-stabilized with E170G and E455G (FECT 2M) (Measles virus strain Ichinose-B95a). As to the kind of experiment: cryo-EM structure.

In the case of “Measles virus fusion protein (F) ectodomain, prefusion-stabilized with E170G and E455G (FECT 2M) (domain or fragment)”, the stoichiometry N came out at 3.
